This note sets out measurements from patent US5780025A, “Compositions and methods for the synthesis and assay of enkephalinase” (Genentech, Inc., priority 1993, dated 1998).

In data set [1] the target is T1, dansyl-Gly-Trp-Gly or dansyl-Gly-Tyr-Gly (Rattus norvegicus, UniProt P07861).
T1 construct: made in house; host or cells: human embryonic kidney (293) cells (pCISrENK); also rabbit reticulocyte lysate in vitro translation (prENKsense)
T1 sequence (P07861 1-750): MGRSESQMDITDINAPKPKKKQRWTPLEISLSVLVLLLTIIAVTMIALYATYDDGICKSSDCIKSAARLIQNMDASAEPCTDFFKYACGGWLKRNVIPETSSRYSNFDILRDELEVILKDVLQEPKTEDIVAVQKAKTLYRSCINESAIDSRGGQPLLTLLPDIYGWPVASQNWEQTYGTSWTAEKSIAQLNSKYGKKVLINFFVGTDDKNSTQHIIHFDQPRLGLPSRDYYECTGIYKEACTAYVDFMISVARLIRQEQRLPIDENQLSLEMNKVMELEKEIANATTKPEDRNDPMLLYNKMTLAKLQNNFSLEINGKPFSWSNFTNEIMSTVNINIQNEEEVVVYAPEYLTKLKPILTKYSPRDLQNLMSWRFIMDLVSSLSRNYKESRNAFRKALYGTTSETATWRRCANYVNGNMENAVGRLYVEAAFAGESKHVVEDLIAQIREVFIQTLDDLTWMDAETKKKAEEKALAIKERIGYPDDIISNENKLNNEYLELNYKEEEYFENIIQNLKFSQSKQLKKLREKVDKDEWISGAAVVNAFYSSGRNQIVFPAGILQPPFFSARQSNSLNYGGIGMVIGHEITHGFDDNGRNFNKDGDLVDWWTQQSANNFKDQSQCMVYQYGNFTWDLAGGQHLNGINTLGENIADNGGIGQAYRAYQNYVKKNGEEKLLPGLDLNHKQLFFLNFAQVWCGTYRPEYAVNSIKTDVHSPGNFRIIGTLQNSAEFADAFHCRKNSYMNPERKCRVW
As to the kind of experiment: Enkephalinase activity of expressed rat enkephalinase material. The format is biochemical. The following applies: rat enkephalinase cDNA expression products. From the text: An assay using novel fluorescent substrates for enkephalinase was developed to assess whether enkephalinase is expressed. This assay is based on the disappearance of energy transfer between a tryptophan or a tyrosine residue and the 5-dimethylaminonaphthalene-1-sulfonyl group (dansyl) in the substrates dansyl-Gly-Trp-Gly or dansyl-Gly-Tyr-Gly upon hydrolysis of their Gly-Trp or Gly-Tyr amide bond by enkephalinase. No significant difference in Km or kcat values were found for dansyl-Gly-Trp-Gly and dansyl-Gly-Tyr-Gly as the active site of enkephalinase appears to accommodate tryptophan residues similarly to tyrosine. The tryptophan and tyrosine containing substrates can be used for continuous recording of enkephalinase activity. […]
Fluorescence measurements were made using a Perkin Elmer, model 650-10S spectrofluorometer, equipped with a temperature controlled cell-holder, maintained at 37° C. […] The 600 μl mixture was transferred into a quartz cuvette, and fluorescence measured. […] The fluorescence in the incubation media could thus be related to the amounts of hydrolyzed substrates. […] Ten μl of purified rat kidney enkephalinase was added and the increase in tryptophan or tyrosine fluorescence was continuously monitored (excitation=280 nm, emission=360 nm for tryptophan, excitation 277, emission 315 for tyrosine). […] Under these conditions, tryptophan fluorescence was stable for over 2 hr.

Data set [2] addresses T2, ^3 H-(DAla^2, Leu^5)enkephalin (Rattus norvegicus, UniProt P07861).
T2 construct: Rat kidney enkephalinase was purified to apparent homogeneity; from tissue; host or cells: rat kidney (male rats, membrane fraction, Triton X-100 solubilised)
T2 sequence (P07861 1-750): T1 sequence (P07861 1-750)
The data set can be described thus: Assay of enkephalinase activity with tritiated enkephalin substrate (Llorens et al. 1982). The format is biochemical. From the text:
As used herein, enkephalinase or enkephalinase derivatives refers to proteins which are enzymatically active or are immunologically cross-reactive with enzymatically active enkephalinase. Enzymatically functional enkephalinase is capable of cleaving the Gly^3 -Phe^4 amide bond of ^3 H-(DAla^2, Leu^5)enkephalin in an assay as described by Llorens et al. (1982).
"Essentially free from" or "essentially pure" when used to describe the state of enkephalinase produced by the invention means free of protein or other materials normally associated with enkephalinase in its in vivo physiological milieu as for example when enkephalinase is obtained from blood and/or tissues by extraction and purification.
Enkephalinase activity was measured as described by Llorens et al. (1982) using ^3 H-(DAla^2, Leu^5)enkephalin as a substrate. […]

B1: prENKsense: in vitro transcription/translation product of plasmid prENKsense (full length rat enkephalinase cDNA), rabbit reticulocyte lysate (protein, UniProt P07861 1-750, looked up)
chain: T1 sequence (P07861 1-750)
modifications: full-length in vitro translated
notes: in vitro transcription/translation product of plasmid prENKsense (full length rat enkephalinase cDNA), rabbit reticulocyte lysate
Consider B1, for which the “enkephalinase activity of expressed material” value in data set [1] is listed as “did not have detectable activity”.

B2: rat kidney enkephalinase: enkephalinase purified from rat kidney, fractions from the last Concanavalin-A step, about 90 Kdalton protein (protein, UniProt P07861 2-750, looked up)
Neprilysin: GRSESQMDITDINAPKPKKKQRWTPLEISLSVLVLLLTIIAVTMIALYATYDDGICKSSDCIKSAARLIQNMDASAEPCTDFFKYACGGWLKRNVIPETSSRYSNFDILRDELEVILKDVLQEPKTEDIVAVQKAKTLYRSCINESAIDSRGGQPLLTLLPDIYGWPVASQNWEQTYGTSWTAEKSIAQLNSKYGKKVLINFFVGTDDKNSTQHIIHFDQPRLGLPSRDYYECTGIYKEACTAYVDFMISVARLIRQEQRLPIDENQLSLEMNKVMELEKEIANATTKPEDRNDPMLLYNKMTLAKLQNNFSLEINGKPFSWSNFTNEIMSTVNINIQNEEEVVVYAPEYLTKLKPILTKYSPRDLQNLMSWRFIMDLVSSLSRNYKESRNAFRKALYGTTSETATWRRCANYVNGNMENAVGRLYVEAAFAGESKHVVEDLIAQIREVFIQTLDDLTWMDAETKKKAEEKALAIKERIGYPDDIISNENKLNNEYLELNYKEEEYFENIIQNLKFSQSKQLKKLREKVDKDEWISGAAVVNAFYSSGRNQIVFPAGILQPPFFSARQSNSLNYGGIGMVIGHEITHGFDDNGRNFNKDGDLVDWWTQQSANNFKDQSQCMVYQYGNFTWDLAGGQHLNGINTLGENIADNGGIGQAYRAYQNYVKKNGEEKLLPGLDLNHKQLFFLNFAQVWCGTYRPEYAVNSIKTDVHSPGNFRIIGTLQNSAEFADAFHCRKNSYMNPERKCRVW
In the case of B2, in data set [2] (six 1 ml fractions from the last Concanavalin-A step, measured at 25° C., ^3 H-(DAla^2, Leu^5)enkephalin as substrate), the “enkephalinase activity, specific activity” value is on record as 27.4 nmole/mg protein/min.

B3: Enkephalinase: Enkephalinase produced by the method of the instant invention, essentially pure (protein, UniProt P07861 2-750, looked up)
Neprilysin: B2 Neprilysin
In the case of B3, the specific activity result in data set [2] (20 nM ^3 H-(DAla^2, Leu^5)enkephalin as substrate, 25° C., 50 mM pH 7.4 HEPES buffer containing 0.02% Tween 20) is on record as “at least 25 nmole/mg protein/min”.

B4: pCISrENK: rat enkephalinase expressed from plasmid pCISrENK in human embryonic kidney (293) cells and purified (protein, UniProt P07861 2-750, looked up)
Neprilysin: B2 Neprilysin
modifications: recombinant, expressed in 293 cells
notes: rat enkephalinase expressed from plasmid pCISrENK in human embryonic kidney (293) cells and purified
Take B4: in data set [1], the “enkephalinase activity of expressed material” value is “biologically active”.
